The results in this text go back to patent publication US8785135B2, “Mutant G-protein coupled receptors and methods for selecting them” (Heptares Therapeutics Limited, priority 2007, dated 2014).

Numbering of substitutions follows the chain as printed. Numbers in names are those of the source.

B1: 1253A: NTR point mutant, Ile 253 to Ala (protein, UniProt P20789 1-424, looked up, variant I253A)
Neurotensin receptor type 1: MHLNSSVPQGTPGEPDAQPFSGPQSEMEATFLALSLSNGSGNTSESDTAGPNSDLDVNTDIYSKVLVTAIYLALFVVGTVGNSVTAFTLARKKSLQSLQSTVHYHLGSLALSDLLILLLAMPVELYNFIWVHHPWAFGDAGCRGYYFLRDACTYATALNVASLSVERYLAICHPFKAKTLMSRSRTKKFISAIWLASALLAIPMLFTMGLQNRSGDGTHPGGLVCTPIVDTATVKVVIQVNTFMSFLFPMLVASILNTVIANKLTVMVHQAAEQGRVCTVGTHNGLEHSTFNMTIEPGRVQALRHGVLVLRAVVIAFVVCWLPYHVRRLMFCYISDEQWTTFLFDFYHYFYMLTNALFYVSSAINPILYNLVSANFRQVFLSTLACLCPGWRHRRKKRPTFSRKPNSMSSNHAFSTSATRETLY
B2: L308A: NTR point mutant (protein, UniProt P20789 1-424, looked up, variant L308A)
Neurotensin receptor type 1: B1 Neurotensin receptor type 1 with A253I, L308A
B3: A73L: NTR point mutant (protein, UniProt P20789 1-424, looked up, variant A73L)
Neurotensin receptor type 1: B1 Neurotensin receptor type 1 with A73L, A253I
B4: G215A: NTR point mutant (protein, UniProt P20789 1-424, looked up, variant G215A)
Neurotensin receptor type 1: B1 Neurotensin receptor type 1 with G215A, A253I
B5: A177L: NTR point mutant (protein, UniProt P20789 1-424, looked up, variant A177L)
Neurotensin receptor type 1: B1 Neurotensin receptor type 1 with A177L, A253I
B6: I260A: NTR point mutant (protein, UniProt P20789 1-424, looked up, variant I260A)
Neurotensin receptor type 1: B1 Neurotensin receptor type 1 with A253I, I260A
B7: M250A: NTR point mutant (protein, UniProt P20789 1-424, looked up, variant M250A)
Neurotensin receptor type 1: B1 Neurotensin receptor type 1 with M250A, A253I
B8: V165A: NTR point mutant (protein, UniProt P20789 1-424, looked up, variant V165A)
Neurotensin receptor type 1: B1 Neurotensin receptor type 1 with V165A, A253I
B9: G306A: NTR point mutant (protein, UniProt P20789 1-424, looked up, variant G306A)
Neurotensin receptor type 1: B1 Neurotensin receptor type 1 with A253I, G306A
B10: V229A: NTR point mutant (protein, UniProt P20789 1-424, looked up, variant V229A)
Neurotensin receptor type 1: B1 Neurotensin receptor type 1 with V229A, A253I
B11: T294A: NTR point mutant (protein, UniProt P20789 1-424, looked up, variant T294A)
Neurotensin receptor type 1: B1 Neurotensin receptor type 1 with A253I, T294A
B12: V309A: NTR point mutant (protein, UniProt P20789 1-424, looked up, variant V309A)
Neurotensin receptor type 1: B1 Neurotensin receptor type 1 with A253I, V309A
B13: E166A: NTR point mutant (protein, UniProt P20789 1-424, looked up, variant E166A)
Neurotensin receptor type 1: B1 Neurotensin receptor type 1 with E166A, A253I
B14: A69L: NTR point mutant (protein, UniProt P20789 1-424, looked up, variant A69L)
Neurotensin receptor type 1: B1 Neurotensin receptor type 1 with A69L, A253I
B15: A90L: NTR point mutant (protein, UniProt P20789 1-424, looked up, variant A90L)
Neurotensin receptor type 1: B1 Neurotensin receptor type 1 with A90L, A253I
B16: R183A: NTR point mutant (protein, UniProt P20789 1-424, looked up, variant R183A)
Neurotensin receptor type 1: B1 Neurotensin receptor type 1 with R183A, A253I
B17: N262A: NTR point mutant (protein, UniProt P20789 1-424, looked up, variant N262A)
Neurotensin receptor type 1: B1 Neurotensin receptor type 1 with A253I, N262A
B18: D139A: NTR point mutant (protein, UniProt P20789 1-424, looked up, variant D139A)
Neurotensin receptor type 1: B1 Neurotensin receptor type 1 with D139A, A253I
B19: K176A: NTR point mutant (protein, UniProt P20789 1-424, looked up, variant K176A)
Neurotensin receptor type 1: B1 Neurotensin receptor type 1 with K176A, A253I
B20: L111A: NTR point mutant (protein, UniProt P20789 1-424, looked up, variant L111A)
Neurotensin receptor type 1: B1 Neurotensin receptor type 1 with L111A, A253I
B21: S182A: NTR point mutant (protein, UniProt P20789 1-424, looked up, variant S182A)
Neurotensin receptor type 1: B1 Neurotensin receptor type 1 with S182A, A253I
B22: A356L: NTR point mutant (protein, UniProt P20789 1-424, looked up, variant A356L)
Neurotensin receptor type 1: B1 Neurotensin receptor type 1 with A253I, A356L
B23: T179A: NTR point mutant (protein, UniProt P20789 1-424, looked up, variant T179A)
Neurotensin receptor type 1: B1 Neurotensin receptor type 1 with T179A, A253I
B24: S100A: NTR point mutant (protein, UniProt P20789 1-424, looked up, variant S100A)
Neurotensin receptor type 1: B1 Neurotensin receptor type 1 with S100A, A253I
B25: L256A: NTR point mutant (protein, UniProt P20789 1-424, looked up, variant L256A)
Neurotensin receptor type 1: B1 Neurotensin receptor type 1 with A253I, L256A
B26: W391A: NTR point mutant (protein, UniProt P20789 1-424, looked up, variant W391A)
Neurotensin receptor type 1: B1 Neurotensin receptor type 1 with A253I, W391A
B27: F147A: NTR point mutant (protein, UniProt P20789 1-424, looked up, variant F147A)
Neurotensin receptor type 1: B1 Neurotensin receptor type 1 with F147A, A253I
B28: M293A: NTR point mutant (protein, UniProt P20789 1-424, looked up, variant M293A)
Neurotensin receptor type 1: B1 Neurotensin receptor type 1 with A253I, M293A
B29: L109A: NTR point mutant (protein, UniProt P20789 1-424, looked up, variant L109A)
Neurotensin receptor type 1: B1 Neurotensin receptor type 1 with L109A, A253I
B30: Wildtype NTR: rat neurotensin receptor, parent (protein)
chain: TSESDTAGPNSDLDVNTDIYSKVLVTAIYLALFVVGTVGNSVTAFTLARKKSLQSLQSTVHYHLGSLALSDLLILLLAMPVELYNFIWVHHPWAFGDAGCRGYYFLRDACTYATALNVASLSVERYLAICHPFKAKTLMSRSRTKKFISAIWLASALLAIPMLFTMGLQNRSGDGTHPGGLVCTPIVDTATVKVVIQVNTFMSFLFPMLVISILNTVIANKLTVMVHQAAEQGRVCTVGTHNGLEHSTFNMTIEPGRVQALRHGVLVLRAVVIAFVVCWLPYHVRRLMFCYISDEQWTTFLFDFYHYFYMLTNALFYVSSAINPILYNLVSANFRQVFLSTLACLCPGWRHRRKKRPTFSRKPNSMSSNHAFSTSATRETLY

One series can be described thus: Thermostability of NTR and mutants (3H-neurotensin binding). It counts as physicochemical. The following applies: Ligand(+) format. The method, then:
FIG. 12 Flow chart showing the two different assay formats of ligand (+) and ligand (−) used to determine receptor thermostability.
• 1. 340 site-directed mutants have been made between residues 61-400 of NTR. • 2. Initially, all of these mutants were assayed for thermostability using an assay measuring ^3H-neurotensin (agonist) binding after the heating step. […] Mutants tested for thermostability by heating in the absence of the agonist were re-tested using a slightly different assay where the mutants were heated in the presence of ^3H-neurotensin (Ligand(+) format in FIG. 12). […] All of these also have increased thermostability. • 5. Preferred combinations are • a. Nag7m F358A+A86L+I260A+F342A Tm 51° C. (neurotensin bound) • b. Nag7n F358A+H103A+I260A+F342A Tm 51° C. (neurotensin bound) • Wildtype NTR has a Tm of 35° C. with neurotensin bound.
On to B1, for which the “thermostability, heated in the presence of 3H-neurotensin” value (from here on “thermostability, heated in the presence”) is “improved thermostability”.

Consider B2, for which the “thermostability, heated in the presence” value is given as “improved thermostability”.

As for B3, the “thermostability, heated in the presence” value is reported as “improved thermostability”.

As for B4, the “thermostability, heated in the presence” value is “improved thermostability”.

On to B5, for which the “thermostability, heated in the presence” value is “improved thermostability”.

Consider B6, for which the “thermostability, heated in the presence” value was “improved thermostability”.

Consider B7, for which the “thermostability, heated in the presence” value is given as “improved thermostability”.

On to B8, for which the “thermostability, heated in the presence” value is on record as “improved thermostability”.

Take B9: the “thermostability, heated in the presence” value is listed as “improved thermostability”.

In the case of B10, the “thermostability, heated in the presence” value was “improved thermostability”.

B11: the “thermostability, heated in the presence” value is “improved thermostability”.

Turning to B12, the “thermostability, heated in the presence” value is recorded as “improved thermostability”.

As for B13, the “thermostability, heated in the presence” value is “improved thermostability”.

As for B14, the “thermostability, heated in the presence” value was “improved thermostability”.

As to B15, the “thermostability, heated in the presence” value is listed as “improved thermostability”.

On to B16, for which the “thermostability, heated in the presence” value is on record as “improved thermostability”.

The series is the same for the next values; noted with them: heated in the absence of the agonist.
In the case of B17, the “thermostability, 3H-neurotensin (agonist) binding after the heating step” value (“thermostability, 3H-neurotensin” for short) is “small but significant increase in thermostability”.

Consider B18, for which the “thermostability, 3H-neurotensin” value is listed as “small but significant increase in thermostability”.

In the case of B19, the “thermostability, 3H-neurotensin” value is “small but significant increase in thermostability”.

For B20, the “thermostability, 3H-neurotensin” value is “small but significant increase in thermostability”.

With B21, the “thermostability, 3H-neurotensin” value is “small but significant increase in thermostability”.

For the molecule B22, the “thermostability, 3H-neurotensin” value was “small but significant increase in thermostability”.

In the case of B23, the “thermostability, 3H-neurotensin” value was “small but significant increase in thermostability”.

Take B24: the “thermostability, 3H-neurotensin” value is on record as “small but significant increase in thermostability”.

With B25, the “thermostability, 3H-neurotensin” value is given as “small but significant increase in thermostability”.

Take B26: the “thermostability, 3H-neurotensin” value was “small but significant increase in thermostability”.

B27: the “thermostability, 3H-neurotensin” value is “small but significant increase in thermostability”.

B28: the “thermostability, 3H-neurotensin” value is reported as “small but significant increase in thermostability”.

As for B29, the “thermostability, 3H-neurotensin” value is listed as “small but significant increase in thermostability”.

As to B15, the “thermostability, 3H-neurotensin” value is listed as “small but significant increase in thermostability”.

The same series, now with this note: neurotensin bound.
Regarding B30, the Tm was 35 °C.
